Values belong to the compound of their own block, whether it stands above or below them.
Key:
[1] = target: HuR (Recombinant Human Elav-like protein 1, ELAVL1/HuR) (Homo sapiens, UniProt Q15717); assay: fluorescence anisotropy, displacement of pri-miR-7-1 CTL 6-FAM RNA from purified recombinant HuR; RP-CONA in HeLa extracts gave IC50 […]; format: binding
[2] = tested on: mCherry-HuR (human (HeLa HuR KO cells; HuR species implied)?); assay: RP-CONA (on-bead RNA pull-down, confocal imaging); details: Anisotropy: phosphate buffer pH 7.5, 25 mM MgCl (so in the source), 250 mM NaCl, 0.1% Tween 20, 5 mM DTT, temperature not stated, RP-CONA: cell extract on …
[3] = tested on: HuR (ELAV-like protein 1), recombinant (human); assay: fluorescence anisotropy; details: Anisotropy: phosphate buffer pH 7.5, 25 mM MgCl (so in the source), 250 mM NaCl, 0.1% Tween 20, 5 mM DTT, temperature not stated; RP-CONA: cell extract on …

HuR (Recombinant Human Elav-like protein 1, ELAVL1/HuR), sequence (Q15717 2-326): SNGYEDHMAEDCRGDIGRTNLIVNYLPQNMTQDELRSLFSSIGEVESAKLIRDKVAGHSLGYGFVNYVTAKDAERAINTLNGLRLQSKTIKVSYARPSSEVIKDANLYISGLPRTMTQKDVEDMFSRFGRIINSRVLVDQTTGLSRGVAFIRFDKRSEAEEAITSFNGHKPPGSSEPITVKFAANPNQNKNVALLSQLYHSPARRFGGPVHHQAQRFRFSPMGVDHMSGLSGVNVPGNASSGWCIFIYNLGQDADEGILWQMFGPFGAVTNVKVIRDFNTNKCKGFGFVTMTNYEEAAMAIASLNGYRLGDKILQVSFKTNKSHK

- IC50 [1]: 19 µM
Compound: CC1=NN(c2ccc(C)c(C)c2)C(=O)/C1=N\Nc1cccc(-c2cccc(C(=O)O)c2)c1O [E20, Eltrombopag]

Compound: pri-miR-7 CTL (pri-miR-7-6-FAM), RP-CONA
- binding signal ([2]; 20 uM Eltrombopag): 80 % inhibition
- IC50 ([2]; IC50 is of Eltrombopag (0-50 uM) inhibiting the complex, not HuR affinity): 5.9 µM

Compound: pri-miR-7-1-6-FAM CTL, anisotropy
- IC50 [3]: 19 µM
